Here are results for 6 substances from US20030100021A1.

Assay in all cases: cell-based or functional assay
Test [1] has as its target EpoR/LepR-F3-EpoR chimeric bait receptor (pSEL1-EpoR) (human; mouse) (UniProt P19235).
The target in test [2] is LepR-IRS1 bait receptor (pMET7 LepR-IRS1) (mouse; human) (UniProt P48356).
For test [3], the target named is EpoR/LepR-F3-p53 chimeric bait receptor (pSEL1-p53) (human; mouse) (UniProt P19235).
Test [4] deals with βc/LepR-F3-Smad3 + GM-CSFRα/LepR-F3-ALK4CA heteromeric bait receptor (Example 8, transfection b) (mouse; human) (UniProt P32927).
Test [5] has as its target βc/LepR-F3-ALK4CA + GM-CSFRα/LepR-F3-Smad3 heteromeric bait receptor (Example 8, transfection a) (mouse; human) (UniProt P32927).
For test [6], the target named is LepR Y985/1077F mutant (pMET7 LepRY985/1077F) (mouse) (UniProt P48356).
LepR Y985/1077F mutant (pMET7 LepRY985/1077F) (mouse), sequence (P48356 other isoform, or with tags, fused parts or gaps mutant): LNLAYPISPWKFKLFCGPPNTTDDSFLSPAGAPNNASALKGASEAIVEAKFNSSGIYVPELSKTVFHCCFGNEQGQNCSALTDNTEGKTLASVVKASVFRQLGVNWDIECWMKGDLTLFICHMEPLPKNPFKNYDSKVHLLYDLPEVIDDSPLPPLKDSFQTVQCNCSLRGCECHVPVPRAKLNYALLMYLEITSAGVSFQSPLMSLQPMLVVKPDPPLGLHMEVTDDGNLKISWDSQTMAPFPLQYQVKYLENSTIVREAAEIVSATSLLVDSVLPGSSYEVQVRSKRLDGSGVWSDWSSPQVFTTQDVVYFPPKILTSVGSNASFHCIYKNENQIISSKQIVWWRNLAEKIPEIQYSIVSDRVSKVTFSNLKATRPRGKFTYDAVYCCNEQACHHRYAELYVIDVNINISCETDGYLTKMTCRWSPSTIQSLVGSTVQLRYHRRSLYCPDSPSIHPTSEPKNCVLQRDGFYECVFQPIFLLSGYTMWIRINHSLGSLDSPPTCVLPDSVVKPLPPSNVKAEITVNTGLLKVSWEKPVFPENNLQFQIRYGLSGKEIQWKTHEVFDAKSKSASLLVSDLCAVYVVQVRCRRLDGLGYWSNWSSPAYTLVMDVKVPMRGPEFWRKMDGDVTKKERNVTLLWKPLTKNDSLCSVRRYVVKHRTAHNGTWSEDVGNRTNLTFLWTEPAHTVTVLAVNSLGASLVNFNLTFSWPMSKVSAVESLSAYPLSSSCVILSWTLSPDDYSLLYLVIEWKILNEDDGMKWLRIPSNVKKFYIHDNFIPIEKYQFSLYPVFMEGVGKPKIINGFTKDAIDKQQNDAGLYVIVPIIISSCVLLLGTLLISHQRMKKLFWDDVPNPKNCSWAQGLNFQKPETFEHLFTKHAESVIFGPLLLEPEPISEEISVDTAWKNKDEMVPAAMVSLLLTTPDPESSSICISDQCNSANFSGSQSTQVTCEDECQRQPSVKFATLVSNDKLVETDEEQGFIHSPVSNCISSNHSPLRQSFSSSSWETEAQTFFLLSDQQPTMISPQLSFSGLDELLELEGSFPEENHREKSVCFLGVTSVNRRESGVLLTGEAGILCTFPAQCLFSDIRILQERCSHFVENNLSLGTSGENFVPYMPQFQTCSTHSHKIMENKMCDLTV

flag-gp130-SVT prey (pMG1-SVT; pMET7-flag-gp130-SVT), sequence (P40189 761-918, tags or fused parts left off): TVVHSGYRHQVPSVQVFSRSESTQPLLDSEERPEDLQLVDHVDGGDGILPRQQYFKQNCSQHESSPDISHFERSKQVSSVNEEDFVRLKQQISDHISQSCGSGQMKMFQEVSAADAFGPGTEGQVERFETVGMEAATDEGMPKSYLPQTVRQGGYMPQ
EpoR/LepR-F3-EpoR chimeric bait receptor (pSEL1-EpoR) (human; mouse), sequence (P19235 other isoform, or with tags, fused parts or gaps mutant limits assumed, form in doubt): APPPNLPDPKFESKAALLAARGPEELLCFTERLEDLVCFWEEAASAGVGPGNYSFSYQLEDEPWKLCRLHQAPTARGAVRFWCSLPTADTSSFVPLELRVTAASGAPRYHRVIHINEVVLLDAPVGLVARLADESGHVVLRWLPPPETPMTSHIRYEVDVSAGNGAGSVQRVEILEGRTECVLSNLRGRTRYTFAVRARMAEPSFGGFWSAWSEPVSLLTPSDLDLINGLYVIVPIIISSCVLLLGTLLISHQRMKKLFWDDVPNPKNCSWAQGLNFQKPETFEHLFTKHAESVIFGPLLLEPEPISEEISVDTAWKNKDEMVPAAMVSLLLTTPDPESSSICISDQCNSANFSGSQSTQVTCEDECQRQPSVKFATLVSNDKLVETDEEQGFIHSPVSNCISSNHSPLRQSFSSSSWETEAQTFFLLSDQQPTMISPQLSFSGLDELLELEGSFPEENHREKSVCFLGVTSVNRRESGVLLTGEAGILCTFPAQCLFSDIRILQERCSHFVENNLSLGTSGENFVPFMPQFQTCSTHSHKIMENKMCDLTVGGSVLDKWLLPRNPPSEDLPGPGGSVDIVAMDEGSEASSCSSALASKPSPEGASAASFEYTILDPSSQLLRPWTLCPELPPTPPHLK
EpoR/LepR-F3-p53 chimeric bait receptor (pSEL1-p53) (human; mouse), sequence (P19235 other isoform, or with tags, fused parts or gaps mutant limits assumed, form in doubt): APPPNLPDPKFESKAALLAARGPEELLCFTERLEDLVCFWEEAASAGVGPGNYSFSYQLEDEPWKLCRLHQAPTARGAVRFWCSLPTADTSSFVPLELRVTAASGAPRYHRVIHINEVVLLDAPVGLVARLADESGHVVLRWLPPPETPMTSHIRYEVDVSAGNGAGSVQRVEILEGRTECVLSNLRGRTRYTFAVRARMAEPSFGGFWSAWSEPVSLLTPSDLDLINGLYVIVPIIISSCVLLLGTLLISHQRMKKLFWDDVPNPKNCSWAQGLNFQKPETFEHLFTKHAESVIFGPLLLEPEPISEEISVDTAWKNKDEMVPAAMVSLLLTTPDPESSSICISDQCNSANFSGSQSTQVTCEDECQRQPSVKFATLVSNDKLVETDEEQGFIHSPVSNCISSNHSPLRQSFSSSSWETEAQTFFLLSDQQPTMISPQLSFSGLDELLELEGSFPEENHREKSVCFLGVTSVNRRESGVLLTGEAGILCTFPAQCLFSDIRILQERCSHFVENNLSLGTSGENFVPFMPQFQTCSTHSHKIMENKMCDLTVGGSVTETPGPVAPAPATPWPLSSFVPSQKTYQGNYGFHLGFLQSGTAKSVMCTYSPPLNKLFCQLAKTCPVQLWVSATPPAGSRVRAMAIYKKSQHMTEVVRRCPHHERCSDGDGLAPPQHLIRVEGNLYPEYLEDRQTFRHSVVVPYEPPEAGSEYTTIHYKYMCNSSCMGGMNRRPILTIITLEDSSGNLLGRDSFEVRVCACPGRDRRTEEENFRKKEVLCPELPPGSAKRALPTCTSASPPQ

Take “flag-gp130-CIS prey (pMG1-CIS) (from UniProt P40189 761-918; Q62225 2-257)”: in test [1], the luciferase activity (rPAP1-luci reporter), fold induction, erythropoietin came out at 6.2 fold and the luciferase activity (rPAP1-luci reporter), fold induction, erythropoietin plus forskolin was 10.5 fold.
Substance “flag-gp130-GRB2S prey (pMG1-GRB2S) (from UniProt P40189 761-918; P62993 60-158)” gave a luciferase activity (rPAP1 promoter), fold induction, leptin co-stimulated with forskolin in test [2] of 2.5 fold.
On to “flag-gp130-SVT prey (pMG1-SVT; pMET7-flag-gp130-SVT) (from UniProt P40189 761-918; P03070 261-708)”, for which, in test [3], the luciferase activity (rPAP1-luci reporter), fold induction, erythropoietin was 9.4 fold and the luciferase activity (rPAP1-luci reporter), fold induction, erythropoietin plus forskolin came out at 14.6 fold.
In test [2], “flag-gp130-VavS prey (pMG1-VavS) (from UniProt P40189 761-918; P15498 259-789)” yielded a luciferase activity (rPAP1 promoter), fold induction, leptin of 5.2 fold and a luciferase activity (rPAP1 promoter), fold induction, leptin co-stimulated with forskolin of 12 fold.
With “pMG2-Smad4 prey (flag-gp130 with 6 STAT recruitment sites fused to human Smad4) (from UniProt Q13485 4-552)”, in test [4], the luciferase activity (rPAP1 promoter), fold induction, GM-CSF came to 9 fold and the luciferase activity (rPAP1 promoter), fold induction, GM-CSF co-stimulated with forskolin was 71 fold. Besides, in test [5], the luciferase activity (rPAP1 promoter), fold induction, GM-CSF was 3 fold and the luciferase activity (rPAP1 promoter), fold induction, GM-CSF co-stimulated with forskolin came out at 37 fold.
In the case of “recombinant human leptin (R&D systems) (from UniProt P41159 22-167) (ligand)”, in test [6], the luciferase activity (rPAP1-luci reporter), fold induction, leptin was 33.2 fold and the luciferase activity (rPAP1-luci reporter), fold induction, leptin co-stimulated with forskolin is 37.6 fold.
